Measurements: patent US20110300066A1

Biological target: CD20 (human) (UniProt P11836)
Test: cell-based or functional assay

CD20 (human), sequence (P11836 whole entry): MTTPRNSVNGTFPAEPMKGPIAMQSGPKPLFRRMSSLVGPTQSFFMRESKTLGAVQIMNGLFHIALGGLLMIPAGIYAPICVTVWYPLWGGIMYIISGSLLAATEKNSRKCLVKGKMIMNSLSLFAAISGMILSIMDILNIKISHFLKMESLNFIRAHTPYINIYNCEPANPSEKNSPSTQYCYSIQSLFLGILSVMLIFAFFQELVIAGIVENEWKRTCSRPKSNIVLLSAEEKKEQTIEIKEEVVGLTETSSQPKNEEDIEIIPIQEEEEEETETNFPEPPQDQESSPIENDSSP

Substance: 20-Rap (antibody)
- in vitro cytotoxicity EC50, Daudi and Ramos cells: 0.0001 µM
- in vitro cytotoxicity EC50, Jeko-1 cells: 20 µM
